Assay results as given in patent US20220041711A1 (NGM BIOPHARMACEUTICALS, published 2022).

T1: human MARCO expressed on cells (721.221-MARCO, 293T-MARCO) (human, UniProt Q9UEW3 1-520)
T1 construct: also called 721.221 cells expressing MARCO
T1 sequence: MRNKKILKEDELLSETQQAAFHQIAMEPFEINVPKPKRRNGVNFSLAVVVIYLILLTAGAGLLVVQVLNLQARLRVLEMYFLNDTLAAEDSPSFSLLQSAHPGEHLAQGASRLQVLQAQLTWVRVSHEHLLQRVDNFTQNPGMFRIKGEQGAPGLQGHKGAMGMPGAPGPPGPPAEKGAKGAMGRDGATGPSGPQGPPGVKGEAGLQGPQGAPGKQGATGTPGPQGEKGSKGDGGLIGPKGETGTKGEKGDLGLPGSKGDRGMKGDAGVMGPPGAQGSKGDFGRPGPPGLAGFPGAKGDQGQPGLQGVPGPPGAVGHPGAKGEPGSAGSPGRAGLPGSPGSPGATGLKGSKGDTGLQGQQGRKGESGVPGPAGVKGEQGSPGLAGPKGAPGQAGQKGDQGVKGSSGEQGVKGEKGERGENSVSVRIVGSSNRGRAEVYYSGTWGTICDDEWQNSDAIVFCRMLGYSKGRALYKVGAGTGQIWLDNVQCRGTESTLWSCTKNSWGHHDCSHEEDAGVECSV

T2: MSR1 expressed on transfected 293T cells (UniProt P21757 1-451, limits assumed)
T2 construct: whole, on cells
T2 sequence (looked up): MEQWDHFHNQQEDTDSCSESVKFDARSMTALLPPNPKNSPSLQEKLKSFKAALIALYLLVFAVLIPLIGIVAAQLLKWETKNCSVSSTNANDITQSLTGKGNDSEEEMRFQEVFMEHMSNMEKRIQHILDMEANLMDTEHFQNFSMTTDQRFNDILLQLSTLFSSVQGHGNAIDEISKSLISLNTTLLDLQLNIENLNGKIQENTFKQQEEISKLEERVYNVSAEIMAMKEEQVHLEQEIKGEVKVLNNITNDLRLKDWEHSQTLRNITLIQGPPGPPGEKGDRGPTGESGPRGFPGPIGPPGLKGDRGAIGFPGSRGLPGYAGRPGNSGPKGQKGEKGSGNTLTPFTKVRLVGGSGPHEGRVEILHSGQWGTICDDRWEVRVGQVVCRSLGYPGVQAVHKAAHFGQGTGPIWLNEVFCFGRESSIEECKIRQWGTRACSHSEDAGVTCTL

T3: collagen 17A1 (COL17A1) expressed on 721.221 cells (UniProt Q9UMD9 1-1497, limits assumed)
T3 construct: whole, on cells
T3 sequence (looked up): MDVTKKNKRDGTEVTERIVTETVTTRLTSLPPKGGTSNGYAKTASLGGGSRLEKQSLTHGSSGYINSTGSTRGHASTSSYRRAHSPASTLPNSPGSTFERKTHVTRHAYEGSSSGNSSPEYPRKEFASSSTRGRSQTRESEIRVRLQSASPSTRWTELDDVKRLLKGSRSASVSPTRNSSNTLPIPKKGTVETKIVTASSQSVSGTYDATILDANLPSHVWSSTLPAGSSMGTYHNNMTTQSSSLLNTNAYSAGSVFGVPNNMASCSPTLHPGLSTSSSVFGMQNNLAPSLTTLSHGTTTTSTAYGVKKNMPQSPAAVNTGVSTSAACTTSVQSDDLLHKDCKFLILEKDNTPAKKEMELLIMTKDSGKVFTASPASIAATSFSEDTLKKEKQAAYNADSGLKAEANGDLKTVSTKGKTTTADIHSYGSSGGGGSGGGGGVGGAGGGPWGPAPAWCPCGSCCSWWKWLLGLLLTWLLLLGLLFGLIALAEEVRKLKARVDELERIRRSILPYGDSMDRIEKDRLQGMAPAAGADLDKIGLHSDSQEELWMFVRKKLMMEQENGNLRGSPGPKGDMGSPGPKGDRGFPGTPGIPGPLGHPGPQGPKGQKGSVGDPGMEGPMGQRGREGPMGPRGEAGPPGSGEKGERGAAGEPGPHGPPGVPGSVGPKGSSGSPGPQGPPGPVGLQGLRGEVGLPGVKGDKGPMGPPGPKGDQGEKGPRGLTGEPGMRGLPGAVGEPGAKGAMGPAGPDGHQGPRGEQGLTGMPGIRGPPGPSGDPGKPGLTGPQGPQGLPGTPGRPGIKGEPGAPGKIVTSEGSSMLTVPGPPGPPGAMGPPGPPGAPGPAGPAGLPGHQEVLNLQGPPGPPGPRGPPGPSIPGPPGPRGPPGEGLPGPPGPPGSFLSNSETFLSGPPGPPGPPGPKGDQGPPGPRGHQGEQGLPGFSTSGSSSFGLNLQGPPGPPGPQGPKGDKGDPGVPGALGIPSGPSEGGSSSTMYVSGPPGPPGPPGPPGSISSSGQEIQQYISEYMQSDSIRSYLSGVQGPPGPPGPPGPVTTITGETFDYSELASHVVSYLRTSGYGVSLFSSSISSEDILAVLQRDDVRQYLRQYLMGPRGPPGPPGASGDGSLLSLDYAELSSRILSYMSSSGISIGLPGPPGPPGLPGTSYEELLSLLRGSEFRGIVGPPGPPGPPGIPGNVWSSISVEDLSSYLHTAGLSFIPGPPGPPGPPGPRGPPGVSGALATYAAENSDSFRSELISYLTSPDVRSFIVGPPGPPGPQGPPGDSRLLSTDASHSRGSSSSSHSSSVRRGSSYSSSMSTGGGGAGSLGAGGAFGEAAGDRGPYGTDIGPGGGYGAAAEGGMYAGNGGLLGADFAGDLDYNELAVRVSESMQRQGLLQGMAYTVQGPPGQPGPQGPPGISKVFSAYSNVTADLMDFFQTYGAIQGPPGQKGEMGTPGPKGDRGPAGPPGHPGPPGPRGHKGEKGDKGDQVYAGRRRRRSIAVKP

T4: human MARCO (form in the assay not stated) (human, UniProt Q9UEW3 79-520, limits assumed)
T4 sequence: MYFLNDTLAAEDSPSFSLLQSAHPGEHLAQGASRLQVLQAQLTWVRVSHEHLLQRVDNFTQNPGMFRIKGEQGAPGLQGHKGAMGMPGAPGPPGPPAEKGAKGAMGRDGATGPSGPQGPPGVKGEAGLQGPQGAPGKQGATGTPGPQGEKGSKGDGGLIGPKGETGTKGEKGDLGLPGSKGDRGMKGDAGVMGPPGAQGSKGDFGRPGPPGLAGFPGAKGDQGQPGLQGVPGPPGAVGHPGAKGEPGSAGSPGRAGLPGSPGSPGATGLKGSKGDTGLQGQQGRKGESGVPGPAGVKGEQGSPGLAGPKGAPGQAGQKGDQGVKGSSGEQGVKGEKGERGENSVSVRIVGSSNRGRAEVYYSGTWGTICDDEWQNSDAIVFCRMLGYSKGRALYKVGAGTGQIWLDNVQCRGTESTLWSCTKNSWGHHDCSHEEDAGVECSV

B1: anti-MARCO antibody 6D8 (antibody, mouse IgG2a, kappa)
heavy: QVQLKESGPGLVAPSQSLSIACTVSGFSLTNYAISWVRQPPGKGLEWLGVIWTGGGTNYNSTLKSRLSISKDNSKSQVFLKMNSLQTDDTARYNCARNSGDWYFDVWGPGTTVTVSSAKTTAPSVYPLAPVCGDTTGSSVTLGCLVKGYFPEPVTLTWNSGSLSSGVHTFPAVLQSDLYTLSSSVTVTSSTWPSQSITCNVAHPASSTKVDKKIEPRGPTIKPCPPCKCPAPNAAGGPSVFIFPPKIKDVLMISLSPIVTCVVVDVSEDDPDVQISWFVNNVEVHTAQTQTHREDYNSTLRVVSALPIQHQDWMSGKEFKCKVNNKDLGAPIERTISKPKGSVRAPQVYVLPPPEEEMTKKQVTLTCMVTDFMPEDIYVEWTNNGKTELNYKNTEPVLDSDGSYFMYSKLRVEKKNWVERNSYSCSVVHEGLHNHHTTKSFSRTPGK
light: DIVMSQSPSSLAVSVGEKVTMSCKSSQSLLYSSNQKNYLAWYQQKPGQSPHLLIYWASTRESGVPDRFIGSGSGTDFTLTISSVKAEDLAVYYCQQYYDYPPTFGSGTKLEIKRADAAPTVSIFPPSSEQLTSGGASVVCFLNNFYPKDINVKWKIDGSERQNGVLNSWTDQDSKDSTYSMSSTLTLTKDEYERHNSYTCEATHKTSTSPIVKSFNRNEC
notes: detected with anti-mouse IgG; copies: 2 + 2
B2: anti-MARCO antibody 15A3 (antibody, mouse IgG2a, kappa)
heavy: EIQLQQSGPELVKPGASVKVSCKASGYSFTDYNMYWVKQSHGKSLEWIGYIDPYNGGTSYNQKFKGKATLTVDKSSSTAFMHLNSLTSEDSAVYYCARLRSPYDYDRGDYVMDYWGQGTSVTVSSAKTTAPSVYPLAPVCGDTTGSSVTLGCLVKGYFPEPVTLTWNSGSLSSGVHTFPAVLQSDLYTLSSSVTVTSSTWPSQSITCNVAHPASSTKVDKKIEPRGPTIKPCPPCKCPAPNAAGGPSVFIFPPKIKDVLMISLSPIVTCVVVDVSEDDPDVQISWFVNNVEVHTAQTQTHREDYNSTLRVVSALPIQHQDWMSGKEFKCKVNNKDLGAPIERTISKPKGSVRAPQVYVLPPPEEEMTKKQVTLTCMVTDFMPEDIYVEWTNNGKTELNYKNTEPVLDSDGSYFMYSKLRVEKKNWVERNSYSCSVVHEGLHNHHTTKSFSRTPGK
light: DIVLTQSPASLAVSLGQRATISCRASKSVSTSGYTYMHWYQQKPGQPPKLLIYLASNLESGVPARFSGSGSGTDFTLNIHPVEEEDAATYYCQHSRELPLTFGAGTKLELKRADAAPTVSIFPPSSEQLTSGGASVVCFLNNFYPKDINVKWKIDGSERQNGVLNSWTDQDSKDSTYSMSSTLTLTKDEYERHNSYTCEATHKTSTSPIVKSFNRNEC
notes: as for B1
B3: anti-MARCO antibody 10G4 (antibody, mouse IgG2a, kappa)
heavy: QVQLKESGPGLVAPSQSLSITCTVSGFSLSSYPISWVRQPPGKGLEWLGIIWTGGGTNYNSALKSRLSISKDNSKSQVFLKMNSLQTDDTARYYCASQNWDVNSALDYWGQGTSVTVSSAKTTAPSVYPLAPVCGDTTGSSVTLGCLVKGYFPEPVTLTWNSGSLSSGVHTFPAVLQSDLYTLSSSVTVTSSTWPSQSITCNVAHPASSTKVDKKIEPRGPTIKPCPPCKCPAPNAAGGPSVFIFPPKIKDVLMISLSPIVTCVVVDVSEDDPDVQISWFVNNVEVHTAQTQTHREDYNSTLRVVSALPIQHQDWMSGKEFKCKVNNKDLGAPIERTISKPKGSVRAPQVYVLPPPEEEMTKKQVTLTCMVTDFMPEDIYVEWTNNGKTELNYKNTEPVLDSDGSYFMYSKLRVEKKNWVERNSYSCSVVHEGLHNHHTTKSFSRTPGK
light: DIQMTQSPASLSVSVGETVTITCRASENIYSNLAWYQQKQGKSPQLLVYTATNLADGVPSRFSGSGSGTQYSLRINRLQSEDFGNYYCQHFWNAPWTFGGGTKLEIKRADAAPTVSIFPPSSEQLTSGGASVVCFLNNFYPKDINVKWKIDGSERQNGVLNSWTDQDSKDSTYSMSSTLTLTKDEYERHNSYTCEATHKTSTSPIVKSFNRNEC
notes: as for B1

Key:
[1] = target: T5, CD163L expressed on transfected 293T cells (UniProt Q9NR16 41-1453); experiment: flow cytometry on 293T-CD163L cells, Alexa647 anti-mouse IgG secondary
T5 construct: whole, on cells
T5 sequence (Q9NR16 41-1453): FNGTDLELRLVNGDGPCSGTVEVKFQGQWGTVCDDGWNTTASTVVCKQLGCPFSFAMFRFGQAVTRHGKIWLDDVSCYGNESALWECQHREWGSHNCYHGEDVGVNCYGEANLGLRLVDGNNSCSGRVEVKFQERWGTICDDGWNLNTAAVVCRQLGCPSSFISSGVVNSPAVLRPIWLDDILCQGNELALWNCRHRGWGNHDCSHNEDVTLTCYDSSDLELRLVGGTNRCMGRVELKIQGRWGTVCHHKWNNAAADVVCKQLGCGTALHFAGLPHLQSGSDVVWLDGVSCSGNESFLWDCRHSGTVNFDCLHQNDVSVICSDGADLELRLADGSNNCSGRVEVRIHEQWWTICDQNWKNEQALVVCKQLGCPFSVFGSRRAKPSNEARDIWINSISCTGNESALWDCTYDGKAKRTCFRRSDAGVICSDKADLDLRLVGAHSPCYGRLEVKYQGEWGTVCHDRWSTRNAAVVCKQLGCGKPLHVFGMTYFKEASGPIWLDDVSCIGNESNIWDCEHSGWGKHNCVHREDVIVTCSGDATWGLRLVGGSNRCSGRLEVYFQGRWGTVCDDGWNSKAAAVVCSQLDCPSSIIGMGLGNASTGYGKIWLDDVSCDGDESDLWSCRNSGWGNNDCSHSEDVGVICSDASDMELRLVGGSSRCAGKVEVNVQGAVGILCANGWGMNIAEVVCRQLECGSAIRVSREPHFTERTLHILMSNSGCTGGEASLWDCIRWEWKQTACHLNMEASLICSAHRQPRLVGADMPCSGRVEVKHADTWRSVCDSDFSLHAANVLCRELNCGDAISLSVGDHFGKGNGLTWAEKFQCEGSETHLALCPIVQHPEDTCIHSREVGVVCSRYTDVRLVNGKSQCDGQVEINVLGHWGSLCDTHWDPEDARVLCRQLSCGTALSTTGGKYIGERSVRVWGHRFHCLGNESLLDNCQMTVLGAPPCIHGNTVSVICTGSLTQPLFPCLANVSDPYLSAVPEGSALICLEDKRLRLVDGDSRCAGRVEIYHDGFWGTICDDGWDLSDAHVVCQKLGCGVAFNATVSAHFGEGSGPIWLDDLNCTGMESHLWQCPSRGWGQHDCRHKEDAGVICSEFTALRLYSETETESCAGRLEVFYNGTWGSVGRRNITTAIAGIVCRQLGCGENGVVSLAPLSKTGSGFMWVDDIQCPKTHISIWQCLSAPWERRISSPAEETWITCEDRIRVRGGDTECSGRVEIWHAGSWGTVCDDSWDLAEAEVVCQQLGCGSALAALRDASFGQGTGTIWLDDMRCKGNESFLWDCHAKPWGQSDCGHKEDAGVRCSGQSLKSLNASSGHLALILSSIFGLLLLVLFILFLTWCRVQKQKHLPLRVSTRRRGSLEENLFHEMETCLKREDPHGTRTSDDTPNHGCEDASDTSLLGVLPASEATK
Description: (§1) An Alexa647-labeled anti-mouse IgG secondary antibody was added to the plates. Positive binding was measured by flow cytometry and analyzed using FlowJo software.
(§2) Binding was detected using an Alexa647-labeled anti-mouse IgG secondary antibody (Jackson ImmunoResearch). Cells were analyzed by flow cytometry on a LSRFortessa™ instrument (BD Biosciences) and using FlowJo software. Live cells were gated before analysis. The percentage of live cells bound by the antibodies in each subset (% mAb binding+) and the mean fluorescence intensity (MFI) were calculated. Non-specific background staining was determined with secondary antibody alone.

[2] = target: T1, human MARCO expressed on cells …; experiment: flow cytometry, antibody at 2.5 µg/mL, Alexa647 anti-mouse IgG secondary
Description: as §1, §2

[3] = target: T2, MSR1 expressed on transfected 293T cells; experiment: flow cytometry on 293T-MSR1 cells, Alexa647 anti-mouse IgG secondary
Description: as §1, §2

[4] = target: T6, SCARA5 expressed on transfected 293T cells (UniProt Q6ZMJ2 1-495, limits assumed); experiment: flow cytometry on 293T-SCARA5 cells, Alexa647 anti-mouse IgG secondary
T6 construct: whole, on cells
T6 sequence (Q6ZMJ2 whole entry): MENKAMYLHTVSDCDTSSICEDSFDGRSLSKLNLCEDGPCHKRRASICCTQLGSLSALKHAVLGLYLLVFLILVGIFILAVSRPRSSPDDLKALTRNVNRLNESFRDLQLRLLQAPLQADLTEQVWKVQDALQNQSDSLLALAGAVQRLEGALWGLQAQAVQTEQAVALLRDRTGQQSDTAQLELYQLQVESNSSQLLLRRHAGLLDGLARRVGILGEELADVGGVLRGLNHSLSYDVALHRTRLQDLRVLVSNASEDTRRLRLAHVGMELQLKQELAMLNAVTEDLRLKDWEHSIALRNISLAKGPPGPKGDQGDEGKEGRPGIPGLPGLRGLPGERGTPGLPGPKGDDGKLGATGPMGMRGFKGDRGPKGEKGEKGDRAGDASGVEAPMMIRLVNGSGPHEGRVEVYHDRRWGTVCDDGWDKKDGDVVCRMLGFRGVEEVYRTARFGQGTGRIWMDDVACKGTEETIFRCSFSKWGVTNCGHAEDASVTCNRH
Description: as §1, §2

[5] = target: T7, COL13A1 expressed on transfected 293T cells (UniProt Q5TAT6 1-717, limits assumed); experiment: IHC on 293T-transfected cell pellets; '-' = no detectable signal
T7 construct: whole, on cells
T7 sequence (Q5TAT6 whole entry): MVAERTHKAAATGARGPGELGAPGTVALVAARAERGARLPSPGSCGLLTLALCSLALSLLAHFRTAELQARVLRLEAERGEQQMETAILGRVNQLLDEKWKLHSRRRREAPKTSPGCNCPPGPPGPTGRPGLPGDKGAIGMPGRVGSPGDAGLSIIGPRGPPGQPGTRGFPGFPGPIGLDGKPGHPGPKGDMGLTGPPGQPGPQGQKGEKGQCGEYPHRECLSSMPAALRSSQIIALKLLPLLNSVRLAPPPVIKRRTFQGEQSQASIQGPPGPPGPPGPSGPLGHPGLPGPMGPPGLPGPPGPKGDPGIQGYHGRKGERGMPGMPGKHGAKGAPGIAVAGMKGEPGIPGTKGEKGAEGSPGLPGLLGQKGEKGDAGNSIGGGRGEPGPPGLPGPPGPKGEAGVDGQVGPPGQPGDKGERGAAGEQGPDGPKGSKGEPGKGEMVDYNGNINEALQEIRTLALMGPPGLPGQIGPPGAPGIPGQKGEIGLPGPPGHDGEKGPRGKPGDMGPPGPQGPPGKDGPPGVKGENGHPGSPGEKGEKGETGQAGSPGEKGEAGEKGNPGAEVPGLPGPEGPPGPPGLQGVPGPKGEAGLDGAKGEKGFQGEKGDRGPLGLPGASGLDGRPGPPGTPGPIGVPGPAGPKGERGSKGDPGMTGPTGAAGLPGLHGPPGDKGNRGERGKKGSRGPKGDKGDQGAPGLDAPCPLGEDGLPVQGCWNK
Description: A biopsy punch was used to make cell pellet tissue microarrays, from which sections were cut and slides were prepared. […] Samples were pre-treated with Diva Decloake and blocked with intelliPATH FLX™ peroxidase blocking solution and background Punisher (Biocare Medical). […] Tissues were washed and bluing reagent (Ventana) was added.

[6] = target: T3, collagen 17A1 (COL17A1) expressed on …; experiment: IHC on 721.221 stable cell lines; '-' = no detectable signal
Description: 721.221 cells were assayed using the Leica BOND RX fully automated research stainer platform. […] Samples were pre-treated with Diva Decloaker and blocked with intelliPATH FLX™ peroxidase blocking solution.

[7] = target: T4, human MARCO (form in the assay not …); experiment: ELISA, FACS and IHC screening

| Binder | binding result [1] | binding result [2] | binding result [3] | binding result [4] | binding result [5] | binding result [6] | binding result [7] |
| --- | --- | --- | --- | --- | --- | --- | --- |
| B1 | no binding (tested: 2.5 µg/mL) | binds | no binding (tested: 2.5 µg/mL) | no binding (tested: 2.5 µg/mL) | no binding | no binding | binds |
| B2 | no binding (tested: 2.5 µg/mL) | binds | no binding (tested: 2.5 µg/mL) | no binding (tested: 2.5 µg/mL) | no binding | no binding | binds |
| B3 | no binding (tested: 2.5 µg/mL) | binds | no binding (tested: 2.5 µg/mL) | no binding (tested: 2.5 µg/mL) | no binding | no binding | binds |
